Target: the molecule itself
Experiment: fluorescence correlation spectroscopy; 15 nM Atto 488-labelled TLL plus non-labelled TLL to 500 nM, no PMMA, broad-range buffer (succinic acid/NaH2PO4/glycine), pH 7 and pH 5; mean diffusion constant compared with the value predicted for the monomer (Hullrad)

B1: Thermomyces lanuginosus lipase (enzyme, UniProt O59952 23-291, looked up)
chain: EVSQDLFNQFNLFAQYSAAAYCGKNNDAPAGTNITCTGNACPEVEKADATFLYSFEDSGVGDVTGFLALDNTNKLIVLSFRGSRSIENWIGNLNFDLKEINDICSGCRGHDGFTSSWRSVADTLRQKVEDAVREHPDYRVVFTGHSLGGALATVAGADLRGNGYDIDVFSYGAPRVGNRAFAEFLTVQTGGTLYRITHTNDIVPRLPPREFGYSHSSPEYWIKSGTLVPVTRNDIVKIEGIDATGGNNQPNIPDIPAHLWYFGLIGTCL
modifications: Atto 488 coupled unspecifically to amines via NHS-ester (15 nM labelled protein, non-labelled enzyme added to 500 nM)
notes: Thermomyces lanuginosus lipase (TLL), commercial enzyme preparation; The PDB entries were used only for computational surface analysis; also called TLL; Atto 488-TLL; source: gift from ASA Spezialenzyme GmbH (Wolfenbüttel, Germany), desalted (HiTrap Desalting) before use
stoichiometry N: 2
